Protein production data for 16 sequences are collected here from a protein production outcome set (Wang et al. 2014).

The data set is described as follows: label from the status in PepcDB records.
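Further: failed if final PepcDB status was selected cloned or expressed and not failed if soluble or beyond.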

With “MQHGARHRWGLTSGYRPGSGRRPGPSAVVAVAAFALVVASQGAAVARPAQAAAADREFASSFESGEPAPDWLSTVDTAADGSKRASGVDGGYSTGIPGNVTDHVTDVRAGAENTGAGEVKENLVDGESSTKWLTFTPTGWAEFDLDAPVKLVTYALTSANDADERDPADWTLQGSTDGKDWKTLDTRTGESFAERFQTKSYDLASPAEYQHFRLDITKNHGADLLQLADVQFSTGGTSDPAPKDMLSLVDRGPSGSPTAKAGAGFTGKRALRYAGTHKADARAYSYNKVFDVNVGVGRDTELSYRIFPSMADKDRDYDATNVSVDLVFTDGTYLSDLKATDQHGFALTPQGQGAAKILYVNQWNNVVSRIGSVAAGRTVDRILVAYDSPKGPAKFRGWLDDIALKAAPPEKPKAHLSDYALTTRGTNSSSGFSRGNNFPATAVPHGFNFWTPVTNAGSLSWLYDYARSNNADNLPTIQAFSASHEPSPWMGDRQTFQVMPSAASGTPDTGRTARALAFRHENETARPYYYGVTFENGLKAEMAPTDHAAALRFTYPGDDASVLFDNVTDQAGLTLDKEHGIVTGYSDVKSGLSTGATRLFVYGVFDAPVKEGASSGVKGYLRFAPGADHTVTLRLATSLISVDQAKDNLGQEIPDGTSFTTVKNRAQQQWDKLLGKVEVEGATPDQLTTLYSSMYRLYLYPNSGFEKIGSKYRYASPFQPMPSPDTPTHTGAKIVDGKVYVNNGFWDTYRTTWPAYSFLTPGQAGEMVDGFVQQYKDGGWTSRWSSPGYADLMTGTSSDVAFADAYVKGVDFDAKAAYDAAVKNATVVPPSSGVGRKGMATSPFLGYTSTDTSEGLSWAMEGYNNDYGIARMGQALYKKTGKKRYKEEAAYFLNRAQDYVKLFDGKAGFFQGRDGKGDWRVDSATYDPRVWGYDYTETNGWGYAFTAPQDSRGLANLYGGRGALAKKLDTYFATPETASPDFVGSYGGVIHEMTEARDVRMGMYGHSNQVAHHVNYMYDAAGRPWKTQANVREVLSRLYTGSEIGQGYHGDEDNGEQSAWYLFSALGFYPLVMGSGEYAIGSPLFTKATVHLENGRDLVVKAPKNSAKNVYVQGLKVNGKKWTSTSLPHSLIAKGGVLAFDMGAKPSSWGSGGGAGPVSITKGDQVPSPRADAIKGGGALFDDTSATSATVTSVELPVAARTKAVQYTLTSSSDHTAAPAGWVLEASADGTHWTTVDRRTDESFTWDRQTRVFSIAHPGKYAHYRLVPTAEATLAEVELLS”, the protein production entry was “failed”.
For the sequence “MQHPRQGPPSRHTRRSLGRSLALTMTAVLGAAGLALSPAASADSGPTTADPTEAHGLKGEYYTQSAPGAFDFAELKATGFDPGLDFDSLESRLSAATGRADDVSVRWTGEVVPEKSGPTTFSITGDNGFRLWVDGKLTIDHWVDDWDREQTSQPVDLTAGRAYDIKVEYFEHFGGSNLHLRWTPPGGSKSAVPQSAFRLPDGFDYNGALSATVLGDGRTVRLDFPQALASAPATVLDHLTVTSGGKWPLSSVKTDPSDARALLVGLGEPVVGNKAGTAKGGVNVTYDGKGALADTSGTPVKAFWSSGPNKSTYELRTKWADQVGPKNALPEYPRPQLTRKAWQNLNGTWQFAGAKAGEEPPTGRTLAERILVPYPVESQLSGIERHEDRMWYRRTFTVPADWKVGHGKRLRLNFGAVDWQSEVYVNGTKVAEHKGGYDKFSADVTDALKPGRTQELIVGVYDPTDAQGGENPPLGKQRLDPSGIWYTPSSGIWQTVWMEPVAADHVDTLKLTPDVETSTLTVEPKGVRDGLAVTATAYDGKKKVATVRGRTGTPLTLKLAEPRLWSPDDPFLYDLKVDVGADRVGSYFGMRSIAVEKVDGTPRTVLNGKPVFMMATLDQGFWPDGLHTAPTDDALAHDLKMHKQMGFNSVRKHIKVEPDRWFYWADRLGLLVWQDMPAMTAGVNPNAASRAEYEREMKQLIDEHISSPSVVMWVTFNEGWGQYDEARIADQAKAWDPTRLVNSMSGLNLGVDGGTGDVMDEHGYPSPALPPHPDGRRALVSGEYGGLGLGVPGHAWSVQMSYVDVDPAAYTDTYLARLDEVRRLACRGGNGAVYTQISDVEGELNGLMTYDRKIVKPDVQRLRTAHEALIEAVAQSTLPCATS”, the protein production result is reported as “failed”.
Under “MQHSTLEPSTSLDVPSCIPRVSRYPRVKDVIARKYRLVVKTIGYIGWSLFWLLIWDVLVTIDFMLFLNSKFTLPLIPLTLLGSALVVLVSFRNSSAYSRWWEARTLWGALVNSSRSFARQTLTLIDDPDDGLNPVKATLLRRHIAYVNCLAAHLKGESCPEELMAFIPPAEFERRNRSNNFANDILGGSAALLAREYQAGRLDSIRLARLESTLVDLSNAQGGMERIANTPLPYPYVYFPRLFITLFCLIVPVGLVESLGWFTPLASTVVGFMLLAIERIGTDLQSPFRFSEHQIQMDTICETIERNLESMQREAQCAEAVDA” stands “failed”; under “MQHYFYYIHSKHITPCFIFVDDVLSCLQRLNYQHLPAVSWSCFVSDQIIARVSQSLAKEQSLESLVRQLLEMLEMVTDMESTYLTKVDVEARLQHIMFARNSQKMHIPENFTVSWDYSLCKRAIDENCFFSDEVPDRWGDCIAARNLGITTFLSTPIHLPDGSFYGTLCAASSEKRQWSERAEQVLQLFAGLIAQYIQKEALVEQLREANAALIAQSYTDSLTGLPNRRAIFENLTTLFSLARHLNHKIMIAFIDLDNFKLINDRFGHNSGDLFLIQVGERLNTLQQNGEVIGRLGGDEFLVVSLNNENADISSLRERIQQQIRGEYHLGDVDLYYPGASLGIVEVDPETTDADSALHAADIAMYQEKKHKQKTPFVTHSALHS”, “failed”; under “MQIGKVTGSLWATRKDEKLNGLKLLLVEITDEVEDKRHSIVAADNAGAGNGDLVLVTTGSAARASTGDNTIPVDACIVGIIDSVERYGLEHHHHHH”, “failed”.
Take “MQIGPGSATRLEFRRHFAATPEQLWAALTSPALLPAWLFARGWPMTECVFEPHKGGLIRQVWTGPEGRTRGLTGRVILAEPPHRLIHSELYDEDWTGGETLVTLQLLPVEGGTELAMAVDYATPEARDAVAASAMATEMEEAYRHLDVMLAALEHHHHHH”: the protein production entry is recorded as “not failed”.
Consider “MQIKAGLIWMNGAFVPQEEAKTSVLSHALHYGTSVFEGIRAYETAKGPAIFRLKEHVKRFYNSAKVLRMEIPFAPEELEEAIKEVVRRNGYRSCYIRPLAWMGAKALGVNPLPNNPAEVMVAAWEWGAYLGEEAVRKGARLITSSWARFPANVMPGKAKVGGNYVNSALAKMEAVAAGADEALLLDEEGYVAEGSGENLFFVRDGVIYALEHSVNLEGITRDSVIRIAKDLGYEVQVVRATRDQLYMADEVFMTGTAAEVTPVSMIDWRPIGKGTAGPVALRLREVYLEAVTGRRPEYEGWLTYVNGQ”, for which the protein production entry is reported as “not failed”.
As to “MQINGKAPRNKDLEPHSFELWLNAAKTNLDKYEMALIITATLGLRRGEVMGLRNESIKISHDQINDADVAQISIDMQRNTNELNGGPLKTKSSYRTIWAFGKTVDHLKYAMITADNLRQRNNIQAEKHWLWLNNDGNPLHPTHLNRLMRRVSNRSGVEVYPHLLRHYFATQAIAANKPQIDVMHYLGHKNLQMTADYTRSTKAASLNVFNSIDKFLLEHHHHHH”, the protein production entry was “not failed”.
Then “MQISDIEVFAAIASSRSLSEAARRLGLSPMAISRRLAALENDLGVRLFHRTTRSVSLTPEGEVFLPHAKTILEASEAARTTLKADAGSASGVLRVTAPSVFGQTVIMPLLPALMLENPALSIDLTLSDSIVDIAGLGIDVAIRIATIRDSALVARSLAPNPRVVCVSPDYLARHGKPTLLEELRHHPCIALHAMPWWPFTRNGEPITIRAQGPFSANSVEAVRTACKQGMGLAMLTYWDVRQEINEGSLQQVDFEDAMPEQLSVTAVLPTRQRVPHRVRLFIDRLEAALKSKAGAAGVTL”, with “failed”; and “MQIYQLSGRNVEVTEPMREYVEEKLSRLDRYTDQITDARVTLTVRDVRNNERRNRVEVQLNVPGGIIRAEEHHADMYAAIDKASDVLERQLRKFKTRYMKQRQEGRPEPLPGPAEAEVNAQGSGAAMDDVSEFHPEIVRQKRFELRPMSAEDAVVQMEALGHDFYVFQDLQGQTGVVYRRRDGHYGLIGSS”, with “failed”.
For the sequence “MQKALFNLVLRGLEKQVPATGLGLFRLAFGLVAFQEICFLYYFRQLIFDPVPYLDIASPSVHLFLVLWAIAALCLALGLYTRLAAIANYLFWLVFTVFTPMWKDFDGGFDQLMLGSSLLLIFLPSERAWSLDRLRLAWRHSTVDRCYALPRTVPVLCYFLPLAVSLGFIYFDSVIHKLFAEFWRNGLGPWLPSSLPYYMSPLDMGWLLEIEPLQRAIGYTIIAFQFAFLFLLYFRRFRVPLMLVGLSLHAGIIVSLNIYPFGFGMLVHYFLMVPFRWWRTLGRTLRPAEPALQVFYDERCPLCLKTVLAIEHFDVFRAVEFRGLQTHAATAPALEDIPERDLLGDLYAVDREGRRYSGVATYARILVAMRYPALAGLAMRLPGLATIADRVYRRIADNRVRLGCDASCAPAPGRTEPDLAQRIGRWVGGSLQQRANRISRMLVVVLILQLNCTLHYAILYRLGVDTKANEAGQVLTMLSNALISASHTFLGITPHPLYLHDHFQGYEHILGIVHLDADGKERWLPFVDEEGRIVSPNWGRVHSMWANVAVTRHMDPRRLDKFVRKVTAFWGTRLGLDLNRTTFVLKLKTVKAPMDWEPGLRRYNLAQPWEDVGRAVWRDGEMRLELDRDLEALSAD”, the protein production entry is recorded as “failed”.
For the sequence “MQKGVYIMNSTSSIITIGREYGSGGRQIGQEVAKYFGIKCYDKELLEHAANDSGICKELFEHHDEKPTNSFLYSLVMDTYSFGYSSSGFSDMPMNHKIFLAQFDAIKKLAGEGPCVMVGRCADYALADWNDCFSIFVHADLDWRINRIASKHGKTPKEAKDMITKTDKSRASYYNYYTNKKWGAARSYNLCIDSGKLGIDYATEAIIESIKIFDRTKISK”, the protein production entry is given as “failed”.
Take “MQKTSFALLVAALQLASASALAATPPVADAIWFNGPIITIDDQHPKAQAVAVKDGKILAVGDRQHVLKNKGPATQMLDLKGATLLPGFVDPHGHVSMVGFQAASANLLPPPDGTNNSIPGLQETLRRFEQQSPIPKQFGVLFGFGYDDSQLQEQRHPTKADLDAVTRDLPIAIVHQSSHLGVLNSKALELAGIDASTPNPEGGVIRRVDGSQEPNGVLEENAFFNALIRIFPKLTADQAVDMLSAGQKLYVSYGYTTIQDGRSSPDQVKTAIKAAGDGKLLADIVSYPDILTPGVKQLMVAPWYHPSNQPVVYNQHFRIGGVKLTLDGSPQGKTAWLSQPYFKPPQGQDASYAGYGVVKDADALAIYKEALANRWQILSHTNGDRAIDQLLGSMRAAEQAYPGVDVRPVMIHGQTLRKDQVAELKQLKIFPSLFPMHTYYWGDWHRQSVLGPERAENISPTQWVLQAGMKFTTHHDAPVALPDSMRVLAATVNRTTRSGYVLGPDQRVTPLQALKAMTLWSAYQHFEEDRKGSITPGKLADFAVLSANPLTVKPETLSEIQVLKTVKEGRVIYERPAKVASLPPPFGMHGDPSLPVPQGIRAVAQGDGDLGPALDVIYDRLAPVQP”: the protein production entry is recorded as “failed”.
As for “MQLEPRINTFSMEAMFTFSSTFLYDSIVDSSRPILATSLLGCDVTDPERRATTACCICEETLSELHMTRPTQKVKAVSGPTRERHIIFSTCKPVL”, the protein production result was “failed”.
For “MQLKSRVFIVTGASSGLGAAVTRAGSGGRDSARAGPEAASGGRACRSSARRCASEMPTRMRPTPPPLAFAKQEFGHVHGLVNCAGTAPGEDSRQERPARTGQFRPHGRRQPDRHSTYGLPPRSCRRESRTPTASGVIVNTASIAAFDGQIGQAAYAAEGRRRRPDASGRARARAFRNSRRPLRPASSIRRWPACLRMFRMRAASVPFPPRLGRAEEYAALVKHIREYDAQWRGHPPRRGFAHGAPV”, the protein production entry was “not failed”.
Consider “MQLLKELCSIHAPSGNEEPLKDFILEYIRSNAGSWSYQPVIYADNDLQDCIVLVFGNPRTAVFAHMDSIGFTVSYNNHLHPIGSPSAKEGYRLVGKDSNGDIEGVLKIVDEEWMLETDRLIDRGTEVTFKPDFREEGDFILTPYLDDRLGVWTALELAKTLEHGIIAFTCWEEHGGGSVAYLARWIYETFHVKQSLICDITWVTEGVEAGKGVAISMRDRMIPRKKYVNRIIELARQTDIPFQLEVEGAGASDGRELQLSPYPWDWCFIGAPEKDAHTPNECVHKKDIESMVGLYKYLMEKL”, for which the protein production entry is listed as “not failed”.
